What was measured:
[1] = biological target: Mojiang virus attachment glycoprotein (MojV G), full length, S-tagged (Mojiang virus); test: cross-linking
[2] = biological target: Mojiang virus fusion glycoprotein (MojV F), full length, S-tagged (Mojiang virus); test: cross-linking
[3] = biological target: soluble tetrameric Ghana virus attachment glycoprotein (GhV sG) (Ghana virus); test: negative-stain electron microscopy
[4] = biological target: soluble tetrameric Mojiang virus attachment glycoprotein (MojV sG) (Mojiang virus); test: negative-stain electron microscopy
[5] = biological target: soluble trimeric Cedar virus fusion glycoprotein (CedV sF) (Cedar virus); test: negative-stain electron microscopy
[6] = biological target: soluble trimeric Mojiang virus fusion glycoprotein (MojV sF) (Mojiang virus); test: negative-stain electron microscopy
cross-linking = biological target: the molecule itself; test: cross-linking

Mojiang virus attachment glycoprotein (MojV G), full length, S-tagged (natural protein)
stoichiometry N [1]: 4

Mojiang virus fusion glycoprotein (MojV F), full length, S-tagged (natural protein)
stoichiometry N [2]: 3

soluble tetrameric Ghana virus attachment glycoprotein (GhV sG) (domain or fragment)
stoichiometry N [3]: 4

soluble tetrameric Mojiang virus attachment glycoprotein (MojV sG) (domain or fragment)
stoichiometry N [4]: 4

soluble trimeric Cedar virus fusion glycoprotein (CedV sF) (domain or fragment)
stoichiometry N [5]: 3

soluble trimeric Mojiang virus fusion glycoprotein (MojV sF) (domain or fragment)
stoichiometry N [6]: 3

B1: Hendra virus attachment glycoprotein (HeV G), full length, S-tagged (natural protein)
chain: MMADSKLVSLNNNLSGKIKDQGKVIKNYYGTMDIKKINDGLLDSKILGAFNTVIALLGSIIIIVMNIMIIQNYTRTTDNQALIKESLQSVQQQIKALTDKIGTEIGPKVSLIDTSSTITIPANIGLLGSKISQSTSSINENVNDKCKFTLPPLKIHECNISCPNPLPFREYRPISQGVSDLVGLPNQICLQKTTSTILKPRLISYTLPINTREGVCITDPLLAVDNGFFAYSHLEKIGSCTRGIAKQRIIGVGEVLDRGDKVPSMFMTNVWTPPNPSTIHHCSSTYHEDFYYTLCAVSHVGDPILNSTSWTESLSLIRLAVRPKSDSGDYNQKYIAITKVERGKYDKVMPYGPSGIKQGDTLYFPAVGFLPRTEFQYNDSNCPIIHCKYSKAENCRLSMGVNSKSHYILRSGLLKYNLSLGGDIILQFIEIADNRLTIGSPSKIYNSLGQPVFYQASYSWDTMIKLGDVDTVDPLRVQWRNNSVISRPGQSQCPRFNVCPEVCWEGTYNDAFLIDRLNWVSAGVYLNSNQTAENPVFAVFKDNEILYQVPLAEDDTNAQKTITDCFLLENVIWCISLVEIYDTGDSVIRPKLFAVKIPAQCSES
stoichiometry N (cross-linking): 4

B2: Cedar virus attachment glycoprotein (CedV G), full length, S-tagged (natural protein)
chain: MLSQLQKNYLDNSNQQGDKMNNPDKKLSVNFNPLELDKGQKDLNKSYYVKNKNYNVSNLLNESLHDIKFCIYCIFSLLIIITIINIITISIVITRLKVHEENNGMESPNLQSIQDSLSSLTNMINTEITPRIGILVTATSVTLSSSINYVGTKTNQLVNELKDYITKSCGFKVPELKLHECNISCADPKISKSAMYSTNAYAELAGPPKIFCKSVSKDPDFRLKQIDYVIPVQQDRSICMNNPLLDISDGFFTYIHYEGINSCKKSDSFKVLLSHGEIVDRGDYRPSLYLLSSHYHPYSMQVINCVPVTCNQSSFVFCHISNNTKTLDNSDYSSDEYYITYFNGIDRPKTKKIPINNMTADNRYIHFTFSGGGGVCLGEEFIIPVTTVINTDVFTHDYCESFNCSVQTGKSLKEICSESLRSPTNSSRYNLNGIMIISQNNMTDFKIQLNGITYNKLSFGSPGRLSKTLGQVLYYQSSMSWDTYLKAGFVEKWKPFTPNWMNNTVISRPNQGNCPRYHKCPEICYGGTYNDIAPLDLGKDMYVSVILDSDQLAENPEITVFNSTTILYKERVSKDELNTRSTTTSCFLFLDEPWCISVLETNRFNGKSIRPEIYSYKIPKYC
notes: source: BSR-T7/5, transfected, on cells; precipitated from lysate with S protein agarose; not shown: S-tag, N-terminal, kept
stoichiometry N (cross-linking): 4

Reference: paper PMC8004131 (Viruses, 2021)
